Literature values, collected in US20120082669A1, “HUMAN EPO MIMETIC HINGE CORE MIMETIBODIES, COMPOSITIONS, METHODS AND USES FOR PREVENTING OR TREATING GLUCOSE INTOLERANCE RELATED CONDITIONS OR RENAL DISEASE ASSOCIATED ANEMIA” (priority 2006, published 2012).

What was measured:
[1] = tested on: patients with end-stage renal disease; settings: patients with end-stage renal disease treated with EPO; cited from earlier work
[2] = cited from earlier work
EPO receptor [3] = target: T1, EPO receptor (Homo sapiens, UniProt P19235); settings: cited from earlier work
T1 sequence (P19235 25-508): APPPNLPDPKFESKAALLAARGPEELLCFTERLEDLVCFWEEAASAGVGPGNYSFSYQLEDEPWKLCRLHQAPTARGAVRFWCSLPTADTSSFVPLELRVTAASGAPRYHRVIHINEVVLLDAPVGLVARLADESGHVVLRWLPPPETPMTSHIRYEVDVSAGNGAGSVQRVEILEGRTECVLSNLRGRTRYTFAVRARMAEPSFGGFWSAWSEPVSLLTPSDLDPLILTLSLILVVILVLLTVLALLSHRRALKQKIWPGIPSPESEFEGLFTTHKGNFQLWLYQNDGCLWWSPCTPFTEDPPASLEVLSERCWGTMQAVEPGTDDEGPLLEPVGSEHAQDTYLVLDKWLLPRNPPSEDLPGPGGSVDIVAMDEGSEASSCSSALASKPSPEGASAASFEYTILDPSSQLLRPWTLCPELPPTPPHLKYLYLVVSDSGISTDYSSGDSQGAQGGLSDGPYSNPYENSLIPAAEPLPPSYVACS

EPO receptor [4] = target: T1, EPO receptor; settings: relative to HuEPO; cited from earlier work
[5] = serum; cited from earlier work

Row | Substance | blood triglyceride, total cholesterol and LDL levels [1] | insulin resistance [1] | time to peak serum levels ([2]; after subcutaneous administration) [h] | circulating half-life ([2]; intravenously administered, patients with CRF) [h] | time detectable levels of plasma erythropoietin are maintained ([2]; within the therapeutic dose range) | competition with 125I-labeled EPO for binding to the EPO receptor (EPO receptor [3]) | activity, fold less than HuEPO (EPO receptor [4]) | ex-vivo half-life [5] [h]
1 | Erythropoietin: glycoprotein hormone of 165 amino acids and four carbohydrate chains, primary regulator of erythropoiesis | concomitant improvement | improve insulin resistance | 5 to 24 | 3 to 4 | at least 24 hours |  |  | 
2 | GGTYSCHFGPLTWVCKPQGG [EMP-1] |  |  |  |  |  | competes | 10,000 to 100,000 fold | 8
